Substrate in the data set: c1ccc2c3c([nH]c2c1)CNCC3
Put plainly: steady-state kinetics of chlorination. To be noted: cofactor regeneration as in Scheme 2. In kind it is biochemical, Lentzea aerocolonigenes.

B1: RebH (Lentzea aerocolonigenes; K145M/M71V/S2P) (protein)
chain: MPGKIDKILIVGGGTAGWMAASYLGKALQGTADITLLQAPDIPTLGVGEATIPNLQTAFFDFLGIPEDEWVRECNASYKVAIKFINWRTAGEGTSEARELDGGPDHFYHSFGLLKYHEQIPLSHYWFDRSYRGKTVEPFDYACYMEPVILDANRSPRRLDGSKVTNYAWHFDAHLVADFLRRFATEKLGVRHVEDRVEHVQRDANGNIESVRTATGRVFDADLFVDCSGFRGLLINKAMEEPFLDMSDHLLNDSAVATQVPHDDDANGVEPFTSAIAMKSGWTWKIPMLGRFGTGYVYSSRFATEDEAVREFCEMWHLDPETQPLNRIRFRVGRNRRAWVGNCVSIGTSSCFVEPLESTGIYFVYAALYQLVKHFPDKSLNPVLTARFNREIETMFDDTRDFIQAHFYFSPRTDTPFWRANKELRLADGMQEKIDMYRAGMAINAPASDDAQLYYGNFEEEFRNFWNNSNYYCVLAGLGLVPDAPSPRLAHMPQATESVDEVFGAVKDRQRNLLETLPSLHEFLRQQHGR
B1: where the note is “variant 1-PVM, 5 mol% enzyme”, the Km (usually the concentration of substrate that gives half-maximal velocity) came to 215 µM; the kcat (in general, the maximal rate divided by the concentration of active sites) turned out to be 0.000667 s⁻¹; the kcat/Km (in general, the turnover number divided by the Michaelis constant) stood at 3.1 M⁻¹ s⁻¹.

B2: RebH (Lentzea aerocolonigenes; K145M/M71V/N467T/S2P) (protein)
chain: MPGKIDKILIVGGGTAGWMAASYLGKALQGTADITLLQAPDIPTLGVGEATIPNLQTAFFDFLGIPEDEWVRECNASYKVAIKFINWRTAGEGTSEARELDGGPDHFYHSFGLLKYHEQIPLSHYWFDRSYRGKTVEPFDYACYMEPVILDANRSPRRLDGSKVTNYAWHFDAHLVADFLRRFATEKLGVRHVEDRVEHVQRDANGNIESVRTATGRVFDADLFVDCSGFRGLLINKAMEEPFLDMSDHLLNDSAVATQVPHDDDANGVEPFTSAIAMKSGWTWKIPMLGRFGTGYVYSSRFATEDEAVREFCEMWHLDPETQPLNRIRFRVGRNRRAWVGNCVSIGTSSCFVEPLESTGIYFVYAALYQLVKHFPDKSLNPVLTARFNREIETMFDDTRDFIQAHFYFSPRTDTPFWRANKELRLADGMQEKIDMYRAGMAINAPASDDAQLYYGNFEEEFRNFWTNSNYYCVLAGLGLVPDAPSPRLAHMPQATESVDEVFGAVKDRQRNLLETLPSLHEFLRQQHGR
As to B2, under “variant 2-T, 3 mol% enzyme”, the Michaelis constant (Km) was found to be 236 µM, the kcat is 0.000933 s⁻¹ and the specificity constant (kcat/Km) turned out to be 3.95 M⁻¹ s⁻¹.

For the origin of these results see publication PMC4506780.
